Entries after “also recorded” stand apart in the source; their conditions may differ.
Columns and labels:
[1] = test system: subjects with symptomatic eosinophilic esophagitis (EoE); test: Phase 2 study in EoE patients: subject's global assessment of disease severity; type: in vivo, human; conditions: treatment arm, 180 mg and 360 mg; week 16
Procedure: North America and Switzerland. […] Safety was monitored throughout the study. […] The study was powered for the primary endpoint. […] Still further, the effectiveness of RPC4046 (over placebo) in lowering a subject's global assessment of disease severity at week 16 was analyzed.

human type IL-13 = human type IL-13 (Homo sapiens, UniProt P35225, Q144R); test: Binding of the antibody to IL-13
other cytokines = test: Binding of the antibody to other cytokines
[2] = test system: subjects with symptomatic eosinophilic esophagitis (EoE); test: Phase 2 study in EoE patients: peak esophageal eosinophil count; type: in vivo, human; conditions: for peak esophageal eosinophil count, Mean change / peak esophageal eosinophil count, LSMD versus placebo: Change to Week 16; for peak esophageal eosinophil count, LSMD versus placebo: ANCOVA
From the text: North America and Switzerland. […] Safety was monitored throughout the study. […] The study was powered for the primary endpoint. […] To maximize consistency, biopsies were obtained from proximal and distal esophagus (i.e., 4 biopsy fragments from each level) at screening. Additional biopsies from mid-esophagus was encouraged and effort was made to obtain subsequent biopsies from the same levels. The biopsies were blinded and read by single central pathologist. To be eligible for trial, subjects were evaluated for peak eosinophil count of ≥15/HPF, from 2 of 3 (proximal, mid-, and/or distal) levels of the esophagus at the screening endoscopy. Next, the effectiveness of RPC4046 (over placebo) in lowering peak esophageal eosinophil count in EoE subjects at week 16 was analyzed.

[3] = test system: subjects with symptomatic eosinophilic esophagitis (EoE); test: Phase 2 study in EoE patients: subject's global impression; type: in vivo, human; conditions: therapy arm; week 16
From the text: Safety was monitored throughout the study. […] The study was powered for the primary endpoint.

[4] = target: IL-13 sequence variant, R110Q (Homo sapiens, UniProt P35225); test: Binding of the antibody to IL-13 variant
[5] = test system: subjects with symptomatic eosinophilic esophagitis (EoE); test: Phase 2 study in EoE patients: safety, treatment-emergent adverse events (TEAE)
Procedure: A double-blind, placebo-controlled, dose-finding study was conducted at 40 canters in North America and Switzerland. Patients with EoE (n=100, aged 18-65) were randomized to 180 mg (low dose; LD) or 360 mg (high dose; HD) RPC4046 or PBO (1:1:1) in a Day 1 intravenous loading dose, followed by weekly subcutaneous doses for 15 weeks. […] Safety was monitored throughout the study.
Additionally, various safety and tolerability endpoints are also measurable. Safety and tolerability parameters are evaluated by the incidence, severity, and relationship of adverse events (AEs), serious AEs (SAEs), clinical laboratory abnormalities, changes in vital signs, physical examination abnormalities, and the presence of anti-drug antibodies.

[6] = 180 mg (N = 31), safety population
[7] = 360 mg (N = 34), safety population

human type IL-13, sequence (P35225 15-146 Q144R limits assumed): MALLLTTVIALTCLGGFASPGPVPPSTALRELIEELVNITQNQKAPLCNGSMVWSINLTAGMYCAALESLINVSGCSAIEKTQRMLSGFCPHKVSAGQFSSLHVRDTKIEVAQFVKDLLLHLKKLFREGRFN
IL-13 sequence variant, R110Q, sequence (P35225 35-146, stated change not applied): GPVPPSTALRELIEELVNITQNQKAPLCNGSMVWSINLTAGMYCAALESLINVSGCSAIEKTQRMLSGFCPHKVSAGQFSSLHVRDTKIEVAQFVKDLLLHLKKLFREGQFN

B1: RPC4046: recombinant humanized, high-affinity, selective anti-IL-13 monoclonal antibody; heavy chain variable region SEQ ID NO: 2, light chain variable region SEQ ID NO: 3 (antibody, V domains shown)
VH: EVTLRESGPGLVKPTQTLTLTCTLYGFSLSTSDMGVDWIRQPPGKGLEWLAHIWWDDVKRYNPALKSRLTISKDTSKNQVVLKLTSVDPVDTATYYCARTVSSGYIYYAMDYWGQGTLVTVSS
VL: DIQMTQSPSSLSASVGDRVTISCRASQDIRNYLNWYQQKPGKAPKLLIFYTSKLHSGVPSRFSGSGSGTDYTLTISSLQPEDIATYYCQQGNTLPLTFGGGTKVEIK
subject's global assessment of disease severity at week 16 over placebo [1]: dose-dependent reduction
binding to human type IL-13 (human type IL-13): binds to human type IL-13
selectivity for IL-13 (human type IL-13): highly selective for IL-13
binding to other cytokines (other cytokines): does not bind to other cytokines
peak esophageal eosinophil count, Mean ([2]; 180 mg, Baseline): 131.9 cells/hpf
peak esophageal eosinophil count, Median ([2]; 180 mg, Baseline): 113.0 cells/hpf
peak esophageal eosinophil count, Mean change ([2]; 180 mg): −106.6 cells/hpf
peak esophageal eosinophil count, LSMD versus placebo ([2]; 180 mg): −80.6 cells/hpf
peak esophageal eosinophil count, Mean ([2]; 180 mg, Week 16): 28.9 cells/hpf
peak esophageal eosinophil count, Median ([2]; 180 mg, Week 16): 15.0 cells/hpf
peak esophageal eosinophil count, Mean ([2]; 360 mg, Baseline): 139.4 cells/hpf
peak esophageal eosinophil count, Median ([2]; 360 mg, Baseline): 132.0 cells/hpf
peak esophageal eosinophil count, Mean change ([2]; 360 mg): −111.3 cells/hpf
peak esophageal eosinophil count, LSMD versus placebo ([2]; 360 mg): −79.8 cells/hpf
peak esophageal eosinophil count, Mean ([2]; 360 mg, Week 16): 31.3 cells/hpf
peak esophageal eosinophil count, Median ([2]; 360 mg, Week 16): 15.0 cells/hpf
lowering of esophageal eosinophil counts over placebo at week 16 ([2]; both low (180 mg) and high dose (360 mg)): achieved statistical significance
subjects responding as feeling a lot better or a little better compared to placebo [3]: larger number of subjects
binding to IL-13 sequence variant, R110Q [4]: binds
Number of subjects experiencing Death related to study drug [5, 6]: 0 n
Number of subjects experiencing ≥1 TEAE [5, 6]: 20 n
Number of subjects experiencing ≥1 TEAE leading to study drug d/c [5, 6]: 1 n
Number of subjects experiencing ≥1 TEAE with fatal outcome [5, 6]: 0 n
Number of subjects experiencing ≥1 moderate or severe TEAE [5, 6]: 7 n
Number of subjects experiencing ≥1 possible, probable, or related TEAE [5, 6]: 11 n
Number of subjects experiencing ≥1 related TEAE [5, 6]: 3 n
Number of subjects experiencing ≥1 related serious TEAE [5, 6]: 0 n
Number of subjects experiencing ≥1 serious TEAE [5, 6]: 0 n
Number of subjects experiencing ≥1 severe TEAE [5, 6]: 2 n
Subjects experiencing ≥1 TEAE [5, 6]: (64.5) %
Subjects experiencing ≥1 TEAE leading to study drug d/c [5, 6]: (3.2) %
Subjects experiencing ≥1 moderate or severe TEAE [5, 6]: (22.6) %
Subjects experiencing ≥1 possible, probable, or related TEAE [5, 6]: (35.5) %
Subjects experiencing ≥1 related TEAE [5, 6]: (9.7) %
Subjects experiencing ≥1 severe TEAE [5, 6]: (6.5) %
safety and tolerability ([5]; 180 mg and 360 mg, 16-week treatment): well-tolerated with a favorable safety profile; also recorded: generally safe and well-tolerated
Number of subjects experiencing Death related to study drug [5, 7]: 0 n
Number of subjects experiencing ≥1 TEAE [5, 7]: 29 n
Number of subjects experiencing ≥1 TEAE leading to study drug d/c [5, 7]: 3 n
Number of subjects experiencing ≥1 TEAE with fatal outcome [5, 7]: 0 n
Number of subjects experiencing ≥1 moderate or severe TEAE [5, 7]: 11 n
Number of subjects experiencing ≥1 possible, probable, or related TEAE [5, 7]: 18 n
Number of subjects experiencing ≥1 related TEAE [5, 7]: 5 n
Number of subjects experiencing ≥1 related serious TEAE [5, 7]: 0 n
Number of subjects experiencing ≥1 serious TEAE [5, 7]: 1 n
Number of subjects experiencing ≥1 severe TEAE [5, 7]: 2 n
Subjects experiencing ≥1 TEAE [5, 7]: (85.3) %
Subjects experiencing ≥1 TEAE leading to study drug d/c [5, 7]: (8.8) %
Subjects experiencing ≥1 moderate or severe TEAE [5, 7]: (32.4) %
Subjects experiencing ≥1 possible, probable, or related TEAE [5, 7]: (52.9) %
Subjects experiencing ≥1 related TEAE [5, 7]: (14.7) %
Subjects experiencing ≥1 serious TEAE [5, 7]: (2.9) %
Subjects experiencing ≥1 severe TEAE [5, 7]: (5.9) %
most-frequently reported adverse events ([5]; phase 2 study): headache, URI, arthralgia, nasopharyngitis, sinusitis, abdominal pain and oropharyngeal pain
infusional hypersensitivity events ([5]; treatment groups): no reported instances of infusional hypersensitivity events
